In IntAct's records for PubMed 19804756:

B1: Nibrin (Homo sapiens), O60934 (parent)
chain: MWKLLPAAGPAGGEPYRLLTGVEYVVGRKNCAILIENDQSISRNHAVLTANFSVTNLSQTDEIPVLTLKDNSKYGTFVNEEKMQNGFSRTLKSGDGITFGVFGSKFRIEYEPLVACSSCLDVSGKTALNQAILQLGGFTVNNWTEECTHLVMVSVKVTIKTICALICGRPIVKPEYFTEFLKAVESKKQPPQIESFYPPLDEPSIGSKNVDLSGRQERKQIFKGKTFIFLNAKQHKKLSSAVVFGGGEARLITEENEEEHNFFLAPGTCVVDTGITNSQTLIPDCQKKWIQSIMDMLQRQGLRPIPEAEIGLAVIFMTTKNYCDPQGHPSTGLKTTTPGPSLSQGVSVDEKLMPSAPVNTTTYVADTESEQADTWDLSERPKEIKVSKMEQKFRMLSQDAPTVKESCKTSSNNNSMVSNTLAKMRIPNYQLSPTKLPSINKSKDRASQQQQTNSIRNYFQPSTKKRERDEENQEMSSCKSARIETSCSLLEQTQPATPSLWKNKEQHLSENEPVDTNSDNNLFTDTDLKSIVKNSASKSHAAEKLRSNKKREMDDVAIEDEVLEQLFKDTKPELEIDVKVQKQEEDVNVRKRPRMDIETNDTFSDEAVPESSKISQENEIGKKRELKEDSLWSAKEISNNDKLQDDSEMLPKKLLLTEFRSLVIKNSTSRNPSGINDDYGQLKNFKKFKKVTYPGAGKLPHIIGGSDLIAHHARKNTELEEWLRQEMEVQNQHAKEESLADDLFRYNPYLKRRR
B2: DNA repair and telomere maintenance protein nbs1 (Schizosaccharomyces pombe (strain ATCC 38366 / 972)), O43070 (parent)
chain: MWIIEAEGDILKGKSRILFPGTYIVGRNVSDDSSHIQVISKSISKRHARFTILTPSEKDYFTGGPCEFEVKDLDTKFGTKVNEKVVGQNGDSYKEKDLKIQLGKCPFTINAYWRSMCIQFDNPEMLSQWASNLNLLGIPTGLRDSDATTHFVMNRQAGSSITVGTMYAFLKKTVIIDDSYLQYLSTVKESVIEDASLMPDALECFKNIIKNNDQFPSSPEDCINSLEGFSCAMLNTSSESHHLLELLGLRISTFMSLGDIDKELISKTDFVVLNNAVYDSEKISFPEGIFCLTIEQLWKIIIERNSRELISKEIERLKYATASNSTPQKIIQPQRHIQKNIVDDLFSVKKPLPCSPKSKRVKTLENLSIMDFVQPKQMFGKEPEGYLSNQSNNGSAQNKKSGDNSEKTKNSLKSSSKKSANTGSGQGKTKVEYVSYNSVDKGNSSPFKPLELNVVGEKKANAEVDSLPSENVQESEDDKAFEENRRLRNLGSVEYIRIMSSEKSNANSRHTSKYYSGRKNFKKFQKKASQKAPLQAFLSLSEHKKTEVFDQDDTDLEPVPRLMSKVESIPAGASSDKSGKSSISKKSSNSFKELSPKTNNDEDDEFNDLKFHF
B3: DNA endonuclease ctp1 (Schizosaccharomyces pombe (strain ATCC 38366 / 972)), O74986 (parent)
chain: MNEEEHNKSVHWSIVYRQLGNLLEQYEVEIARLKSQLVLEKKLRIQVEKELESVKTKQISSSASSKVSSNTIQELDSTTDEDEIPGSDTVDEEDPSLNAPFSEKNQSVKIPPHSPTLPVQNASAFVKPISVPLGNVKEEKFLDTNPIGAESFESSDGEMHLRARSPEDMILLRETQPLAPLDINTLGVSDNRQKKGTEKKRPFEPEFLNDDVIRGNKRKALPAYECPDCQKFYELHGPVKESSVAPTWNDENRLGGGSLPNCKHQPLVQKVGRHRKLNIPKPIPNGFWESDFVD
partner: B2 chain

Variants of: B1
Conditions: with mdc1_human MDC1, Q14676
Target sequence in this assay (Q14676 whole entry): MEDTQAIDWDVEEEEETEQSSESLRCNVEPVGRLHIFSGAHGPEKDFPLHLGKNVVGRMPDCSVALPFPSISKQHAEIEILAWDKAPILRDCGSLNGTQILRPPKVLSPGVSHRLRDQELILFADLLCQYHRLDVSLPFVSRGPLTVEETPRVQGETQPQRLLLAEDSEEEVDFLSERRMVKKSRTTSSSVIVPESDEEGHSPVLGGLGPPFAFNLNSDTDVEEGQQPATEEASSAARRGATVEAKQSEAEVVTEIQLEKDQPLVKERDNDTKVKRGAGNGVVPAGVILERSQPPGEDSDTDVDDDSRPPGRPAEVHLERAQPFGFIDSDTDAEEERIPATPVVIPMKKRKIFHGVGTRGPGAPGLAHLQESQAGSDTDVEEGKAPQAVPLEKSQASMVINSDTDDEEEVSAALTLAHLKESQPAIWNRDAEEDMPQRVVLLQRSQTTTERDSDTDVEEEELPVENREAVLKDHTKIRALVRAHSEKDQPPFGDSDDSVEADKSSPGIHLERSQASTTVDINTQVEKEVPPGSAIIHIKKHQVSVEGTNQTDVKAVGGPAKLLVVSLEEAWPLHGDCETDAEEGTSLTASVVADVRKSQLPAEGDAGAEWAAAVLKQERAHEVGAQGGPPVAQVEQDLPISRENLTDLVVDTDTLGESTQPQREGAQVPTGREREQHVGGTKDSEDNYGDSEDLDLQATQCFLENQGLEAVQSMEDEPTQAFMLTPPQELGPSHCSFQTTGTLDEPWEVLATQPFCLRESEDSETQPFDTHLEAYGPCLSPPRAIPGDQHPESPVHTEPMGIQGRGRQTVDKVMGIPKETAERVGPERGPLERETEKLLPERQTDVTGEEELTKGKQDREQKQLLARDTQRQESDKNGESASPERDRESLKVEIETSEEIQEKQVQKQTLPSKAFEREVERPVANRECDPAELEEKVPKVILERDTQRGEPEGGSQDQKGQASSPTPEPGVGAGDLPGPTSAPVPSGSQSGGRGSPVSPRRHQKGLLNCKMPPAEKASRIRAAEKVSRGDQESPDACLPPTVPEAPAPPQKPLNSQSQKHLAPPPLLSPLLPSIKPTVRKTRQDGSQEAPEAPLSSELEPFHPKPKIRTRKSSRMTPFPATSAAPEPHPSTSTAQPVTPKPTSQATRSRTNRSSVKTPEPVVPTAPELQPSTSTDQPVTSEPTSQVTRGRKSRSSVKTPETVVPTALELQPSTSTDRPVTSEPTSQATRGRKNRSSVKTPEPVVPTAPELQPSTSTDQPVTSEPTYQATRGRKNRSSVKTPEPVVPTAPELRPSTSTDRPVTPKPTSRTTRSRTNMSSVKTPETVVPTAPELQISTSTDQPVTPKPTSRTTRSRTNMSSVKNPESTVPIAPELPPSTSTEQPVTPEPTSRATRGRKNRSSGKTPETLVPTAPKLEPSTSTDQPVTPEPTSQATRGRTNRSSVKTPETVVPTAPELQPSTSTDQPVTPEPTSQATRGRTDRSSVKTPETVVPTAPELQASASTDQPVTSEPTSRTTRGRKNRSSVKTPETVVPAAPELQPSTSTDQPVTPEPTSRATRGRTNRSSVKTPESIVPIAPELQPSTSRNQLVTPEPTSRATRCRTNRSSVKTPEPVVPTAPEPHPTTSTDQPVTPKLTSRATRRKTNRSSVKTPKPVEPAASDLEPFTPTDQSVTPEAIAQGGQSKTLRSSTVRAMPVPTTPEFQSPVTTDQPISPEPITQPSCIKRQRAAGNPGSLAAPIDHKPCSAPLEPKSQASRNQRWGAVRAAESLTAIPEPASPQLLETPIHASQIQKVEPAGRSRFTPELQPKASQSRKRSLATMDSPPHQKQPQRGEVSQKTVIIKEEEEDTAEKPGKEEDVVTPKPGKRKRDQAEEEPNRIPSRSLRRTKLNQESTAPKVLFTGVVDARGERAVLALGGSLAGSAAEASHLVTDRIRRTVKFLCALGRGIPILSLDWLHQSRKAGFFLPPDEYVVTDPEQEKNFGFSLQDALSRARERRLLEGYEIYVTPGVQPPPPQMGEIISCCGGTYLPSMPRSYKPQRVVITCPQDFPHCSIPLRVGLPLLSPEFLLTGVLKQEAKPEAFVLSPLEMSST

Variant | effect of a mutation on the interaction
R28A | decreasing interaction
S42A | decreasing interaction
S42A;K160M | disrupting interaction
K160M | decreasing interaction

Variants of: B2
Conditions: with mdc1_human MDC1, Q14676
Target sequence in this assay (Q14676 whole entry): as above

Variant | effect of a mutation on the interaction
K45A | decreasing interaction
K76A | decreasing interaction
G103D | decreasing interaction

Variants of: B3
Conditions: with nbs1_schpo nbs1, O43070

Variant | effect of a mutation on the interaction
D76A | increasing interaction
